This is an account of results in US20220229068A1, “DETECTION OF PROTEIN TO PROTEIN INTERACTIONS” (THE GOVERNING COUNCIL OF THE UNIVERSITY OF TORONTO, priority 2019, published 2022).

What all share (assay): SIMPL ELISA, bait-IN/prey-CIC
(In general: ELISA stands for enzyme-linked immunosorbent assay.)

The target of test [1] is T1, FRS2 (prey, CIC format) (human) (UniProt Q8WU20).
T1 sequence (looked up): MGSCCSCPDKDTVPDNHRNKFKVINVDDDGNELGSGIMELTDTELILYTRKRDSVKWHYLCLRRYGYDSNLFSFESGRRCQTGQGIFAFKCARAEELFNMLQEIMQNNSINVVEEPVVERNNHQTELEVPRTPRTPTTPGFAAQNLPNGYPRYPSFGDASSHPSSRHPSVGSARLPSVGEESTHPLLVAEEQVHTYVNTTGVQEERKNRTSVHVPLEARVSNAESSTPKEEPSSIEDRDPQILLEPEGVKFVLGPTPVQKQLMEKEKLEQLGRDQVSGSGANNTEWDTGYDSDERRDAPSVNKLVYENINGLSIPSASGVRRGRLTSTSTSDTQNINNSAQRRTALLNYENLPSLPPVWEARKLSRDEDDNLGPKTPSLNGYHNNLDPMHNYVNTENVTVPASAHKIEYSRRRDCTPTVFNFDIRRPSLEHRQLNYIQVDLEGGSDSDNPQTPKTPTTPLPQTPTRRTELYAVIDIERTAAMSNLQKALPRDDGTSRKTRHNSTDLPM

In test [2] the target is EIF3E (prey, CIC format) (human) (UniProt P60228).
Sequence of EIF3E (prey, CIC format) (human) (P60228 whole entry): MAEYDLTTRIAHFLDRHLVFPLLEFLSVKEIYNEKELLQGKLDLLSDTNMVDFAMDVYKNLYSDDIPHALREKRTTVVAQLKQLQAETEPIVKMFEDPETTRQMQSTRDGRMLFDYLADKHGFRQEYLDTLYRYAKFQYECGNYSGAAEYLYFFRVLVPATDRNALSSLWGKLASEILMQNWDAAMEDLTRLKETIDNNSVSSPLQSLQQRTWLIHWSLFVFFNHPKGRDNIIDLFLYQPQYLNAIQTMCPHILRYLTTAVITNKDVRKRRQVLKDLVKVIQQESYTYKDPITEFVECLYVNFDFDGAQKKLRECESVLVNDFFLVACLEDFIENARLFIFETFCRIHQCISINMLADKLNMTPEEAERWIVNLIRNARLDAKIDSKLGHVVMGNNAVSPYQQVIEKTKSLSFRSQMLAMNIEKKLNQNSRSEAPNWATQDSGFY
In test [3] the target is RELA (prey, CIC format) (human) (UniProt Q04206).
Sequence of RELA (prey, CIC format) (human) (Q04206 whole entry): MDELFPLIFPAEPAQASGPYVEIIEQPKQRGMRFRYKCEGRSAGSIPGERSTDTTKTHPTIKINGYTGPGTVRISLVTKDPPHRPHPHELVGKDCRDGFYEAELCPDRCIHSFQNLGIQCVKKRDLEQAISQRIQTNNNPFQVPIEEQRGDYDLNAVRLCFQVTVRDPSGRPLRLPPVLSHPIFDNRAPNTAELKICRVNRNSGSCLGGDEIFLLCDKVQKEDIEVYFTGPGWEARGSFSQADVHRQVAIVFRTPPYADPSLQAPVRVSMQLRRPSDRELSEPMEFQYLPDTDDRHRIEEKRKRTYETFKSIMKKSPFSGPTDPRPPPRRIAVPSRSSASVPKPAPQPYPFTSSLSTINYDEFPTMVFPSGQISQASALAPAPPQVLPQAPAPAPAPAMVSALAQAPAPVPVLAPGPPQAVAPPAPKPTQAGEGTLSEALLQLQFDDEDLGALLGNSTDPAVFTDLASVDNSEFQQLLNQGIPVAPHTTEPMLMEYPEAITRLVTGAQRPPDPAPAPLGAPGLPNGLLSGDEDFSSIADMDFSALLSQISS
Test [4] has as its target UBE2I (prey, CIC format) (human) (UniProt P63279).
The target of test [5] is T2, MCM10 (prey, CIC format) (human) (UniProt Q7L590).
T2 sequence (looked up): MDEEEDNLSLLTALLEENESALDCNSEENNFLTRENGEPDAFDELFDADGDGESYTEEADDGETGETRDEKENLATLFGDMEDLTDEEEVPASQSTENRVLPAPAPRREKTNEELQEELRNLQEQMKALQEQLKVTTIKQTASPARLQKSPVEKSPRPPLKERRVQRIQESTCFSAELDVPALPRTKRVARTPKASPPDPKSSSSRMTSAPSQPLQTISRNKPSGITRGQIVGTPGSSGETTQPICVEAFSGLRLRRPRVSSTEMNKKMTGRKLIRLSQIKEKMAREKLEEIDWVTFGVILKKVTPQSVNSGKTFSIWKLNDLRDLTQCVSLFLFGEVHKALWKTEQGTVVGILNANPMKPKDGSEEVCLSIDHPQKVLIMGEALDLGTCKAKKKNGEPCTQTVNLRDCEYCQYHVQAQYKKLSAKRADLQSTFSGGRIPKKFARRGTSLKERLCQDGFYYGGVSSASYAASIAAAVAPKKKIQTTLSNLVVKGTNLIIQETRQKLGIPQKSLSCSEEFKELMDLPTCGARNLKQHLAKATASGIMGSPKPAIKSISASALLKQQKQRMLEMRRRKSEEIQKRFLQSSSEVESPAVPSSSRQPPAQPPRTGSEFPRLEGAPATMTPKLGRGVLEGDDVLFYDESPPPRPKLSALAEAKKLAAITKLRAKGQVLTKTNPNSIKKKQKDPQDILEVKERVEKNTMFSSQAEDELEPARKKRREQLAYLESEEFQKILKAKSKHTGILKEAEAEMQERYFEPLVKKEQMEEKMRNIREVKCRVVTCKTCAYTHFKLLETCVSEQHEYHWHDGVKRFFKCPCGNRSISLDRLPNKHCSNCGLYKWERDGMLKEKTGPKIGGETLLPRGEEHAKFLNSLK

The target of test [6] is T3, ORC4 (prey, CIC format) (human) (UniProt O43929).
T3 sequence (looked up): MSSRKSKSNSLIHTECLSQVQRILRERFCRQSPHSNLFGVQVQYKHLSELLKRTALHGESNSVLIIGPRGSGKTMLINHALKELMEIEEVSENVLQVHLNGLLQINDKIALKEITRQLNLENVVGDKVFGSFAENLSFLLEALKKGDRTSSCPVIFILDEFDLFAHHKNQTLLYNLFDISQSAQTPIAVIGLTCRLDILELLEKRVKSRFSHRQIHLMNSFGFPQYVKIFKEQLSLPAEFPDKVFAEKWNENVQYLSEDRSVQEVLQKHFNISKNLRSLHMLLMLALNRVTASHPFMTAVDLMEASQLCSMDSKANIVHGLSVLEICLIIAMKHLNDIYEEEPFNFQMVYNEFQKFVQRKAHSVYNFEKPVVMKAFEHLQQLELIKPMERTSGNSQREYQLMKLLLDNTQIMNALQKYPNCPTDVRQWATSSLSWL

Test [7] deals with HBB (prey, CIC format) (human) (UniProt P68871).
Sequence of HBB (prey, CIC format) (human) (P68871 whole entry): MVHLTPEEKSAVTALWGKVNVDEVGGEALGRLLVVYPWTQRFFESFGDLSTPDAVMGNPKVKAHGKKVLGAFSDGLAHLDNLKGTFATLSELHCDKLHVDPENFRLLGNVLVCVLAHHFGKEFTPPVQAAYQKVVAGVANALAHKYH
Test [8] deals with T4, NTF4 (prey, CIC format) (human) (UniProt P34130).
T4 sequence (looked up): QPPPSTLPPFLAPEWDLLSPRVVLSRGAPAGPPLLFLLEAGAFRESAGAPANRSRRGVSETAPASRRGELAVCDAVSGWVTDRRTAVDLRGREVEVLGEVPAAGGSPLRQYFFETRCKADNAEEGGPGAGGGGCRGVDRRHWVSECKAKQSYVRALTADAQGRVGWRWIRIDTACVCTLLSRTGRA

Test [9] deals with T5, MAD1L1 (prey, CIC format) (human) (UniProt Q9Y6D9).
T5 sequence (looked up): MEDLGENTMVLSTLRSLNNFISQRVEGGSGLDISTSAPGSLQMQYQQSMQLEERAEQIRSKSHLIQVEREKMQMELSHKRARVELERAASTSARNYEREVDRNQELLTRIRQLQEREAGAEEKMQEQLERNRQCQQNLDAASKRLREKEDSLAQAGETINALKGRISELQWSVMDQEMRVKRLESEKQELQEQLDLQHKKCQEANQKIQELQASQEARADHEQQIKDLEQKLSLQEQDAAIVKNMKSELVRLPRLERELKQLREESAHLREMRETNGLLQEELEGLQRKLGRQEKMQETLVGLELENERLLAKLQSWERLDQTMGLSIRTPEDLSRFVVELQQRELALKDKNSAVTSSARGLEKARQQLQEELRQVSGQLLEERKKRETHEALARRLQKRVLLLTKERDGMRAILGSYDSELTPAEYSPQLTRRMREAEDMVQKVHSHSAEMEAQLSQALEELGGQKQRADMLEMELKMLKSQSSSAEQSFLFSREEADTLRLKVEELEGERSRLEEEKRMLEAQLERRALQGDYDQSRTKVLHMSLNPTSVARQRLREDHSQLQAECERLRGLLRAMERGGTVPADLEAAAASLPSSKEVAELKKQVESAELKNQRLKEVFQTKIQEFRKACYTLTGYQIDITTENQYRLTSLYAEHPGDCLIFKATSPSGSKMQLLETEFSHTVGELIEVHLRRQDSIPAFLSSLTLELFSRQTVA

In test [10] the target is T6, MCM5 (prey, CIC format) (human) (UniProt P33992).
T6 sequence (looked up): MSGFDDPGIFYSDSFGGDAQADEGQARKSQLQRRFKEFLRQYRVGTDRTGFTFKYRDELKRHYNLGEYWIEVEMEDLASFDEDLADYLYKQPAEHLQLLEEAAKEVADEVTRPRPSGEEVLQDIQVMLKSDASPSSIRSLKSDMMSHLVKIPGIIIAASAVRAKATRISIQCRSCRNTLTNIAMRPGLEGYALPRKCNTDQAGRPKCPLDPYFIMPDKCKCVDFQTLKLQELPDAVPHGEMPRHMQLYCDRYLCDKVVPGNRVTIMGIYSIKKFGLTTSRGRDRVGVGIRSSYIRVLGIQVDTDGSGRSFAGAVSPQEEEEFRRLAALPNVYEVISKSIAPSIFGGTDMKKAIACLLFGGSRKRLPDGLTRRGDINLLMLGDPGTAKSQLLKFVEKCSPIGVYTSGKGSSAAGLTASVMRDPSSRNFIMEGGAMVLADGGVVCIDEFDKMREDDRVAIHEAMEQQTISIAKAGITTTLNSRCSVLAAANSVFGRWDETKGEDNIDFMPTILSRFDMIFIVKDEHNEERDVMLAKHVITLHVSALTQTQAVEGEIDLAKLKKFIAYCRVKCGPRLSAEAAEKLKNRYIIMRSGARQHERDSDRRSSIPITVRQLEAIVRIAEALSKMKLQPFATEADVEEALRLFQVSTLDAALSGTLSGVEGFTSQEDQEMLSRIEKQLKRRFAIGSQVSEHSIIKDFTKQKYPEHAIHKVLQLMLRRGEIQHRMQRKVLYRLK

Sequence of UBE2I (prey, CIC format) (human) (P63279 whole entry): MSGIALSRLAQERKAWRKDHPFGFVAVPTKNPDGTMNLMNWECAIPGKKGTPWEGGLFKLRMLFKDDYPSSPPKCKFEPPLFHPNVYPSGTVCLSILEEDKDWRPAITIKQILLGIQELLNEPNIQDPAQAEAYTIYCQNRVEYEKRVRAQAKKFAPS

B1: PTPN11 (bait, IN format) (enzyme, human, UniProt Q06124 1-593, looked up)
chain: MTSRRWFHPNITGVEAENLLLTRGVDGSFLARPSKSNPGDFTLSVRRNGAVTHIKIQNTGDYYDLYGGEKFATLAELVQYYMEHHGQLKEKNGDVIELKYPLNCADPTSERWFHGHLSGKEAEKLLTEKGKHGSFLVRESQSHPGDFVLSVRTGDDKGESNDGKSKVTHVMIRCQELKYDVGGGERFDSLTDLVEHYKKNPMVETLGTVLQLKQPLNTTRINAAEIESRVRELSKLAETTDKVKQGFWEEFETLQQQECKLLYSRKEGQRQENKNKNRYKNILPFDHTRVVLHDGDPNEPVSDYINANIIMPEFETKCNNSKPKKSYIATQGCLQNTVNDFWRMVFQENSRVIVMTTKEVERGKSKCVKYWPDEYALKEYGVMRVRNVKESAAHDYTLRELKLSKVGQGNTERTVWQYHFRTWPDHGVPSDPGGVLDFLEEVHHKQESIMDAGPVVVHCSAGIGRTGTFIVIDILIDIIREKGVDCDIDVPKTIQMVRSQRSGMVQTEAQYRFIYMAVQHYIETLQRRIEEEQKSKRKGHEYTNIKYSLADQTSGDQSPLPPCTPTPPCAEMREDSARVYENVGLMQQQKSFR
In turn, B1 registered a PLU mean in [1] of 0.474.

B2: IFIT1 (bait, IN format) (protein, human, UniProt P09914 1-478, looked up)
chain: MSTNGDDHQVKDSLEQLRCHFTWELSIDDDEMPDLENRVLDQIEFLDTKYSVGIHNLLAYVKHLKGQNEEALKSLKEAENLMQEEHDNQANVRSLVTWGNFAWMYYHMGRLAEAQTYLDKVENICKKLSNPFRYRMECPEIDCEEGWALLKCGGKNYERAKACFEKVLEVDPENPESSAGYAISAYRLDGFKLATKNHKPFSLLPLRQAVRLNPDNGYIKVLLALKLQDEGQEAEGEKYIEEALANMSSQTYVFRYAAKFYRRKGSVDKALELLKKALQETPTSVLLHHQIGLCYKAQMIQIKEATKGQPRGQNREKLDKMIRSAIFHFESAVEKKPTFEVAHLDLARMYIEAGNHRKAEENFQKLLCMKPVVEETMQDIHFHYGRFQEFQKKSDVNAIIHYLKAIKIEQASLTRDKSINSLKKLVLRKLRRKALDLESLSLLGFVYKLEGNMNEALEYYERALRLAADFENSVRQGP
Regarding B2, the PLU mean in test [2] was found to be 0.676; in test [3] it was 0.328.

B3: ORC2 (bait, IN format) (protein, human, UniProt Q13416 1-577, looked up)
chain: MSKPELKEDKMLEVHFVGDDDVLNHILDREGGAKLKKERAQLLVNPKKIIKKPEYDLEEDDQEVLKDQNYVEIMGRDVQESLKNGSATGGGNKVYSFQNRKHSEKMAKLASELAKTPQKSVSFSLKNDPEITINVPQSSKGHSASDKVQPKNNDKSEFLSTAPRSLRKRLIVPRSHSDSESEYSASNSEDDEGVAQEHEEDTNAVIFSQKIQAQNRVVSAPVGKETPSKRMKRDKTSDLVEEYFEAHSSSKVLTSDRTLQKLKRAKLDQQTLRNLLSKVSPSFSAELKQLNQQYEKLFHKWMLQLHLGFNIVLYGLGSKRDLLERFRTTMLQDSIHVVINGFFPGISVKSVLNSITEEVLDHMGTFRSILDQLDWIVNKFKEDSSLELFLLIHNLDSQMLRGEKSQQIIGQLSSLHNIYLIASIDHLNAPLMWDHAKQSLFNWLWYETTTYSPYTEETSYENSLLVKQSGSLPLSSLTHVLRSLTPNARGIFRLLIKYQLDNQDNPSYIGLSFQDFYQQCREAFLVNSDLTLRAQLTEFRDHKLIRTKKGTDGVEYLLIPVDNGTLTDFLEKEEEEA
In the case of B3, the PLU mean is 0.119 in test [4], 0.43 in test [5], 0.297 in test [6] and 0.227 in [7].

B4: BDNF (bait, IN format) (ligand, human, UniProt P23560 19-247, looked up)
chain: APMKEANIRGQGGLAYPGVRTHGTLESVNGPKAGSRGLTSLADTFEHVIEELLDEDQKVRPNEENNKDADLYTSRVMLSSQVPLEPPLLFLLEEYKNYLDAANMSMRVRRHSDPARRGELSVCDSISEWVTAADKKTAVDMSGGTVTVLEKVPVSKGQLKQYFYETKCNPMGYTKEGCRGIDKRHWNSQCRTTQSYVRALTMDSKKRIGWRFIRIDTSCVCTLTIKRGR
As for B4, the values for the PLU mean in [8], in test [9] and in test [10] were 0.629, 0.19 and 0.22, respectively.
